T1: human FcγRIIb constitutively expressed on MDCK cells (human, UniProt P31994 43-310)
T1 sequence (looked up): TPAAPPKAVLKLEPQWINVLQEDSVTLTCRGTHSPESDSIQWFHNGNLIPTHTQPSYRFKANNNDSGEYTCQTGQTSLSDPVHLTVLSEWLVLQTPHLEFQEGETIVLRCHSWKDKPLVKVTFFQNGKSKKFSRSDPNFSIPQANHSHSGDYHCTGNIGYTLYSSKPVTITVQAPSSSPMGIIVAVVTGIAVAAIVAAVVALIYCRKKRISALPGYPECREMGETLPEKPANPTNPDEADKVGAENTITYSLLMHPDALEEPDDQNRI

T2: soluble mouse FcγRII, His-tagged (mouse, UniProt P08101 30-210, limits assumed)
T2 construct: Captured on the chip by an anti-His antibody
T2 sequence (looked up): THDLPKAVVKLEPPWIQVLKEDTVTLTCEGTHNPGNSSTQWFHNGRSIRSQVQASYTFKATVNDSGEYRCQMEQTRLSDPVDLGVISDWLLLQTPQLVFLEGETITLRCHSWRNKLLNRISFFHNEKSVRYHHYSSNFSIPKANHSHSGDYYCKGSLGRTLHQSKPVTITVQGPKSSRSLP


Experiments:
[1] = target: T1, human FcγRIIb constitutively expressed …; assay: cell-based or functional assay
[2] = target: T2, soluble mouse FcγRII, His-tagged; assay: SPR, mouse FcgRII-His captured, antigen-antibody complex injected, pH7.4, 25C
Method: Regarding the produced Fc region variant-containing antibodies, binding assays between soluble mouse FcγRII and antigen-antibody complexes were performed using BIACORE® T200 (GE Healthcare). Soluble mouse FcγRII was produced in the form of a His-tagged molecule by a method known to those skilled in the art. An appropriate amount of an anti-His antibody was fixed onto Sensor chip CM5 (GE Healthcare) by the amine coupling method using a His capture kit (GE Healthcare) to capture mouse FcγRII. Next, an antibody-antigen complex and a running buffer (as a reference solution) were injected, and interaction was allowed to take place with the mouse FcγRII captured onto the sensor chip. 20 mM N-(2-Acetamido)-2-aminoethanesulfonic acid, 150 mM NaCl, 1.2 mM CaCl₂, and 0.05% (w/v) TWEEN, 20 at pH7.4 was used as the running buffer, and the respective buffer was also used to dilute the soluble mouse FcγRII. To regenerate the sensor chip, 10 mM glycine-HCl at pH1.5 was used. All measurements were carried out at 25° C. […] To calculate the parameters, the BIACORE® T100 Evaluation Software (GE Healthcare) was used.

celluar uptake [1] | biacore IC binding [2] | Binder
0 relative to SG1 (=1.00) | 1.33 relative to SG1 (=1.00) | M103205H795-P1484m/M103202L889-SK1 (antibody, human IgG1, kappa) heavy: not shown light: DIVMTQSPATLSLSPGERATLSCTSSQSVYHANWLSWFQQKPGQPPKLLIYWASTLAYGVPSRFSGSGSGTDFTLTISSLQPEDAATYYCAGGYGGGRYAFGQGTKVEIKRTVAAPSVFIFPPSDEQLKSGTASVVCLLNNFYPREAKVQWKVDNALQSGNSQESVTEQDSKDSTYSLSSTLTLSKADYEKHKVYACEVTHQGLSSPVTKSFNRGEC
1.69 relative to SG1 (=1.00) | 1.28 relative to SG1 (=1.00) | M103205H795-P1496m/M103202L889-SK1 (antibody, human IgG1, kappa) heavy: not shown light: DIVMTQSPATLSLSPGERATLSCTSSQSVYHANWLSWFQQKPGQPPKLLIYWASTLAYGVPSRFSGSGSGTDFTLTISSLQPEDAATYYCAGGYGGGRYAFGQGTKVEIKRTVAAPSVFIFPPSDEQLKSGTASVVCLLNNFYPREAKVQWKVDNALQSGNSQESVTEQDSKDSTYSLSSTLTLSKADYEKHKVYACEVTHQGLSSPVTKSFNRGEC
1.45 relative to SG1 (=1.00) | 1.43 relative to SG1 (=1.00) | M103205H795-P1488m/M103202L889-SK1 (antibody, human IgG1, kappa) heavy: not shown light: DIVMTQSPATLSLSPGERATLSCTSSQSVYHANWLSWFQQKPGQPPKLLIYWASTLAYGVPSRFSGSGSGTDFTLTISSLQPEDAATYYCAGGYGGGRYAFGQGTKVEIKRTVAAPSVFIFPPSDEQLKSGTASVVCLLNNFYPREAKVQWKVDNALQSGNSQESVTEQDSKDSTYSLSSTLTLSKADYEKHKVYACEVTHQGLSSPVTKSFNRGEC
1.33 relative to SG1 (=1.00) | 1.28 relative to SG1 (=1.00) | M103205H795-P1490m/M103202L889-SK1 (antibody, human IgG1, kappa) heavy: not shown light: DIVMTQSPATLSLSPGERATLSCTSSQSVYHANWLSWFQQKPGQPPKLLIYWASTLAYGVPSRFSGSGSGTDFTLTISSLQPEDAATYYCAGGYGGGRYAFGQGTKVEIKRTVAAPSVFIFPPSDEQLKSGTASVVCLLNNFYPREAKVQWKVDNALQSGNSQESVTEQDSKDSTYSLSSTLTLSKADYEKHKVYACEVTHQGLSSPVTKSFNRGEC
1.68 relative to SG1 (=1.00) | 1.24 relative to SG1 (=1.00) | M103205H795-P1489m/M103202L889-SK1 (antibody, human IgG1, kappa) heavy: not shown light: DIVMTQSPATLSLSPGERATLSCTSSQSVYHANWLSWFQQKPGQPPKLLIYWASTLAYGVPSRFSGSGSGTDFTLTISSLQPEDAATYYCAGGYGGGRYAFGQGTKVEIKRTVAAPSVFIFPPSDEQLKSGTASVVCLLNNFYPREAKVQWKVDNALQSGNSQESVTEQDSKDSTYSLSSTLTLSKADYEKHKVYACEVTHQGLSSPVTKSFNRGEC
1.23 relative to SG1 (=1.00) | 1.46 relative to SG1 (=1.00) | M103205H795-P1487m/M103202L889-SK1 (antibody, human IgG1, kappa) heavy: not shown light: DIVMTQSPATLSLSPGERATLSCTSSQSVYHANWLSWFQQKPGQPPKLLIYWASTLAYGVPSRFSGSGSGTDFTLTISSLQPEDAATYYCAGGYGGGRYAFGQGTKVEIKRTVAAPSVFIFPPSDEQLKSGTASVVCLLNNFYPREAKVQWKVDNALQSGNSQESVTEQDSKDSTYSLSSTLTLSKADYEKHKVYACEVTHQGLSSPVTKSFNRGEC
1.12 relative to SG1 (=1.00) | 1.14 relative to SG1 (=1.00) | M103205H795-P1494m/M103202L889-SK1 (antibody, human IgG1, kappa) heavy: not shown light: DIVMTQSPATLSLSPGERATLSCTSSQSVYHANWLSWFQQKPGQPPKLLIYWASTLAYGVPSRFSGSGSGTDFTLTISSLQPEDAATYYCAGGYGGGRYAFGQGTKVEIKRTVAAPSVFIFPPSDEQLKSGTASVVCLLNNFYPREAKVQWKVDNALQSGNSQESVTEQDSKDSTYSLSSTLTLSKADYEKHKVYACEVTHQGLSSPVTKSFNRGEC
1.37 relative to SG1 (=1.00) | 1.05 relative to SG1 (=1.00) | M103205H795-P1491m/M103202L889-SK1 (antibody, human IgG1, kappa) heavy: not shown light: DIVMTQSPATLSLSPGERATLSCTSSQSVYHANWLSWFQQKPGQPPKLLIYWASTLAYGVPSRFSGSGSGTDFTLTISSLQPEDAATYYCAGGYGGGRYAFGQGTKVEIKRTVAAPSVFIFPPSDEQLKSGTASVVCLLNNFYPREAKVQWKVDNALQSGNSQESVTEQDSKDSTYSLSSTLTLSKADYEKHKVYACEVTHQGLSSPVTKSFNRGEC
5.68 relative to SG1 (=1.00) | 1.41 relative to SG1 (=1.00) | M103205H795-P1383m/M103202L889-SK1 (antibody, human IgG1, kappa, also called MS1032LO06-P1383m) heavy: QVTLKESGPVLVKPTETLTLTCTVSGIDLSHDDISWVRQAPGKGLEWVGIISYAGSTYYASWAKGRLTISKDTSKNQVVLTMTNMDPVDTATYYCARGVPAYSHGGDLWGQGTLVTVSSASTKGPSVFPLAPSSKSTSGGTAALGCLVKDYFPEPVTVSWNSGALTSGVHTFPAVLQSSGLYSLSSVVTVPSSSLGTQTYICNVNHKPSNTKVDKKVEPKSCDKTHTCPPCPAPELLGGPSVFLFPPKPKDTLMISRTPEVTCVVVDVSHEDPEVKFNWYVDGVEVHNAKTKPREEQYNSTYRVVSVLTVLHRDWLNGKEYKCKVSNKALPAPIEKTISKAKGQPREPQVYTLPPSREEMTKNQVSLTCLVKGFYPSDIAVEWESNGQPENNYKTTPPVLDRDGSFFLYSKLTVKKSRWQQGNVFSCSVMHEALHNHYTQKSLSLSP light: DIVMTQSPATLSLSPGERATLSCTSSQSVYHANWLSWFQQKPGQPPKLLIYWASTLAYGVPSRFSGSGSGTDFTLTISSLQPEDAATYYCAGGYGGGRYAFGQGTKVEIKRTVAAPSVFIFPPSDEQLKSGTASVVCLLNNFYPREAKVQWKVDNALQSGNSQESVTEQDSKDSTYSLSSTLTLSKADYEKHKVYACEVTHQGLSSPVTKSFNRGEC

The remaining lines, values behind:

Binder | celluar uptake [1] | biacore IC binding [2]
M103205H795-P1375m/M103202L889-SK1 (antibody, human IgG1, kappa, also called MS1032LO06-P1375m) heavy: not shown light: DIVMTQSPATLSLSPGERATLSCTSSQSVYHANWLSWFQQKPGQPPKLLIYWASTLAYGVPSRFSGSGSGTDFTLTISSLQPEDAATYYCAGGYGGGRYAFGQGTKVEIKRTVAAPSVFIFPPSDEQLKSGTASVVCLLNNFYPREAKVQWKVDNALQSGNSQESVTEQDSKDSTYSLSSTLTLSKADYEKHKVYACEVTHQGLSSPVTKSFNRGEC | 3.43 relative to SG1 (=1.00) | 1.21 relative to SG1 (=1.00)
M103205H795-P1378m/M103202L889-SK1 (antibody, human IgG1, kappa, also called MS1032LO06-P1378m) heavy: not shown light: DIVMTQSPATLSLSPGERATLSCTSSQSVYHANWLSWFQQKPGQPPKLLIYWASTLAYGVPSRFSGSGSGTDFTLTISSLQPEDAATYYCAGGYGGGRYAFGQGTKVEIKRTVAAPSVFIFPPSDEQLKSGTASVVCLLNNFYPREAKVQWKVDNALQSGNSQESVTEQDSKDSTYSLSSTLTLSKADYEKHKVYACEVTHQGLSSPVTKSFNRGEC | 3.86 relative to SG1 (=1.00) | 1.23 relative to SG1 (=1.00)
M103205H795-P1493m/M103202L889-SK1 (antibody, human IgG1, kappa) heavy: not shown light: DIVMTQSPATLSLSPGERATLSCTSSQSVYHANWLSWFQQKPGQPPKLLIYWASTLAYGVPSRFSGSGSGTDFTLTISSLQPEDAATYYCAGGYGGGRYAFGQGTKVEIKRTVAAPSVFIFPPSDEQLKSGTASVVCLLNNFYPREAKVQWKVDNALQSGNSQESVTEQDSKDSTYSLSSTLTLSKADYEKHKVYACEVTHQGLSSPVTKSFNRGEC | 0.99 relative to SG1 (=1.00) | 1.1 relative to SG1 (=1.00)
M103205H795-P1485m/M103202L889-SK1 (antibody, human IgG1, kappa) heavy: not shown light: DIVMTQSPATLSLSPGERATLSCTSSQSVYHANWLSWFQQKPGQPPKLLIYWASTLAYGVPSRFSGSGSGTDFTLTISSLQPEDAATYYCAGGYGGGRYAFGQGTKVEIKRTVAAPSVFIFPPSDEQLKSGTASVVCLLNNFYPREAKVQWKVDNALQSGNSQESVTEQDSKDSTYSLSSTLTLSKADYEKHKVYACEVTHQGLSSPVTKSFNRGEC | 1.88 relative to SG1 (=1.00) | 1.29 relative to SG1 (=1.00)
M103205H795-P1486m/M103202L889-SK1 (antibody, human IgG1, kappa) heavy: not shown light: DIVMTQSPATLSLSPGERATLSCTSSQSVYHANWLSWFQQKPGQPPKLLIYWASTLAYGVPSRFSGSGSGTDFTLTISSLQPEDAATYYCAGGYGGGRYAFGQGTKVEIKRTVAAPSVFIFPPSDEQLKSGTASVVCLLNNFYPREAKVQWKVDNALQSGNSQESVTEQDSKDSTYSLSSTLTLSKADYEKHKVYACEVTHQGLSSPVTKSFNRGEC | 1.52 relative to SG1 (=1.00) | 1.2 relative to SG1 (=1.00)
M103205H795-P1495m/M103202L889-SK1 (antibody, human IgG1, kappa) heavy: not shown light: DIVMTQSPATLSLSPGERATLSCTSSQSVYHANWLSWFQQKPGQPPKLLIYWASTLAYGVPSRFSGSGSGTDFTLTISSLQPEDAATYYCAGGYGGGRYAFGQGTKVEIKRTVAAPSVFIFPPSDEQLKSGTASVVCLLNNFYPREAKVQWKVDNALQSGNSQESVTEQDSKDSTYSLSSTLTLSKADYEKHKVYACEVTHQGLSSPVTKSFNRGEC | 1.76 relative to SG1 (=1.00) | 1.3 relative to SG1 (=1.00)
M103205H795-P1492m/M103202L889-SK1 (antibody, human IgG1, kappa) heavy: not shown light: DIVMTQSPATLSLSPGERATLSCTSSQSVYHANWLSWFQQKPGQPPKLLIYWASTLAYGVPSRFSGSGSGTDFTLTISSLQPEDAATYYCAGGYGGGRYAFGQGTKVEIKRTVAAPSVFIFPPSDEQLKSGTASVVCLLNNFYPREAKVQWKVDNALQSGNSQESVTEQDSKDSTYSLSSTLTLSKADYEKHKVYACEVTHQGLSSPVTKSFNRGEC | 1.13 relative to SG1 (=1.00) | 0.88 relative to SG1 (=1.00)

Source: patent publication US20200317768A1 (published 2020)
